Our source for the remaining activity values is patent US9176064B2, “Bisubstrate fluorescent probes for protein kinase CK2” (University of Tartu, priority 2012, dated 2015).

By remaining activity is commonly meant the signal under treatment as a percentage of the control signal.

The structures appear in SMILES notation. Where a SMILES comes first, the peptide text is derived from it. [ ]: non-standard residue; d: D form. The star is where a group is joined. X1 = O=C(CCCCCCCn1cnc2c(Br)c(Br)c(Br)c(Br)c21)*

Some targets named below: IR (Homo sapiens, UniProt P06213); PKCa (Homo sapiens, UniProt P17252); JNK3 (Homo sapiens, UniProt P53779); p38b MAPK (Homo sapiens, UniProt Q15759); JNK2 (Homo sapiens, UniProt P45984).
What all share (test): Kinase panel residual activity
Common to all, as to assay type: biochemical
What all share (details): compound at 1 micromolar

The target in a further series is T1, PRAK (Homo sapiens, UniProt Q8IW41).
T1 sequence (Q8IW41 1-473): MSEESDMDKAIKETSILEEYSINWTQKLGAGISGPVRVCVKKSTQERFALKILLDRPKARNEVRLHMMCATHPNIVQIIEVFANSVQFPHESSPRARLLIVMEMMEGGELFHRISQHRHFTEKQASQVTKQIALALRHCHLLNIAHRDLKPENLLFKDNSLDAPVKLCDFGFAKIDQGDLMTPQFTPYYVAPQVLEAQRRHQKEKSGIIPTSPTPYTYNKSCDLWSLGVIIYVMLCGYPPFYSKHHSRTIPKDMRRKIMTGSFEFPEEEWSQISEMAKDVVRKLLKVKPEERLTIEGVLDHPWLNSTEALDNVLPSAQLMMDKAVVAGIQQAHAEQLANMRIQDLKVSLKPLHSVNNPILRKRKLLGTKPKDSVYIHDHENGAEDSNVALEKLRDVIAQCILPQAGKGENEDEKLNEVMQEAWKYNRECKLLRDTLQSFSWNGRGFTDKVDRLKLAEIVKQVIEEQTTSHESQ

Another series has as its target T2, EPH-B2 (Homo sapiens, UniProt P29323).
T2 sequence (P29323 19-1055): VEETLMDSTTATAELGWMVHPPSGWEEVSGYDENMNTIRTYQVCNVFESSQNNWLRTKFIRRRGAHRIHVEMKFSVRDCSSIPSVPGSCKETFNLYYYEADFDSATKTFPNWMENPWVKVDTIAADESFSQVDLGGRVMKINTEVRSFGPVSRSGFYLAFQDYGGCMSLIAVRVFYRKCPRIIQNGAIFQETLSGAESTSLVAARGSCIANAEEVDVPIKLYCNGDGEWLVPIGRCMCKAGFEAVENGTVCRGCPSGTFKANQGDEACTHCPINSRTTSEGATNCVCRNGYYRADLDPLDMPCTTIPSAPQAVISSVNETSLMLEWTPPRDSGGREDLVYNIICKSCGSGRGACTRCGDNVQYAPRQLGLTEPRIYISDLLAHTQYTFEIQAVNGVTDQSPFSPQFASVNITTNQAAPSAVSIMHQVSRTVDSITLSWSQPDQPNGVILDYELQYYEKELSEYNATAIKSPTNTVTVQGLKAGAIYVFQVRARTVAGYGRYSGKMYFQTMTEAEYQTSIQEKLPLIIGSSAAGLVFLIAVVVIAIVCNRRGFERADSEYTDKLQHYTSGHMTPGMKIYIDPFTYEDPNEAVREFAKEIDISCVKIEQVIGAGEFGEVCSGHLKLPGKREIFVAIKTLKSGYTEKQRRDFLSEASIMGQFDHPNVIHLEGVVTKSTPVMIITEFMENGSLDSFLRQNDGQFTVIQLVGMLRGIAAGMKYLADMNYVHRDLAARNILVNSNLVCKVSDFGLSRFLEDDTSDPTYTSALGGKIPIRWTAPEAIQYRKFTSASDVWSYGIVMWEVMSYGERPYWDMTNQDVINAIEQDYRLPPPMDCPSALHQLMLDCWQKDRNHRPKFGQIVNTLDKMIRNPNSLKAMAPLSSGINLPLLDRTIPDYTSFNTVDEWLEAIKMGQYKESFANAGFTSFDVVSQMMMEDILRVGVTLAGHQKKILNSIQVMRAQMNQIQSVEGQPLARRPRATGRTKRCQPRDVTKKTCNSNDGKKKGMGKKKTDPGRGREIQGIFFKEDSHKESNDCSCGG

In a further series the target is T3, DYRK2 (Homo sapiens, UniProt Q92630).
T3 sequence (Q92630 1-601): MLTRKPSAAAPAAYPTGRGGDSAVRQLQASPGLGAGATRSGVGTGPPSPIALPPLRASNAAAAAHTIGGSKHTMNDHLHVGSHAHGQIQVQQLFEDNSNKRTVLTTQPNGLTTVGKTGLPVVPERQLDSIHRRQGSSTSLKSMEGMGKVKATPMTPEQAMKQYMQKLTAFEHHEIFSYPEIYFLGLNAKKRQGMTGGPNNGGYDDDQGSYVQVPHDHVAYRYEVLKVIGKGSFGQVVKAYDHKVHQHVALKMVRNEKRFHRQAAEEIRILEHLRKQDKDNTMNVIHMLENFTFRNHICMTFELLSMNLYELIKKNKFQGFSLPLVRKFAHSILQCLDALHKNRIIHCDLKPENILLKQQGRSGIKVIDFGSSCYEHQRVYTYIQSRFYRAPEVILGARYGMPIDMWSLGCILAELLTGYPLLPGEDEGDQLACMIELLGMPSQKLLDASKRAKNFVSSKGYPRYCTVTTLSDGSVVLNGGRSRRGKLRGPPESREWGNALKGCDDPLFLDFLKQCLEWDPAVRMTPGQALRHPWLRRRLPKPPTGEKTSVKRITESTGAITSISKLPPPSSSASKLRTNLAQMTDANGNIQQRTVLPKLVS

Chain of JNK2 (P45984 whole entry, species assumed): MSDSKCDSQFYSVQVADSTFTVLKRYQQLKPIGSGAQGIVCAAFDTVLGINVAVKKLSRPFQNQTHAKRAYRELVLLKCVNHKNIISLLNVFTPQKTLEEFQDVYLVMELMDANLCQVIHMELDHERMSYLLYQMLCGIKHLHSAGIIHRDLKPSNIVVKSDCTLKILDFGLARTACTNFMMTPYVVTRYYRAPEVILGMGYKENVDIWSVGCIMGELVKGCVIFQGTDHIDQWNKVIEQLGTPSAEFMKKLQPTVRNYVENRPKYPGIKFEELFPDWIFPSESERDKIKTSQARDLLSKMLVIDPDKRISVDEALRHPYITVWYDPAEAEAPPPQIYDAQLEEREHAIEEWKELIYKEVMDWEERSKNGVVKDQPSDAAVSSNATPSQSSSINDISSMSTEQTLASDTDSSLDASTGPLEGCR
Chain of IR (P06213 28-1382): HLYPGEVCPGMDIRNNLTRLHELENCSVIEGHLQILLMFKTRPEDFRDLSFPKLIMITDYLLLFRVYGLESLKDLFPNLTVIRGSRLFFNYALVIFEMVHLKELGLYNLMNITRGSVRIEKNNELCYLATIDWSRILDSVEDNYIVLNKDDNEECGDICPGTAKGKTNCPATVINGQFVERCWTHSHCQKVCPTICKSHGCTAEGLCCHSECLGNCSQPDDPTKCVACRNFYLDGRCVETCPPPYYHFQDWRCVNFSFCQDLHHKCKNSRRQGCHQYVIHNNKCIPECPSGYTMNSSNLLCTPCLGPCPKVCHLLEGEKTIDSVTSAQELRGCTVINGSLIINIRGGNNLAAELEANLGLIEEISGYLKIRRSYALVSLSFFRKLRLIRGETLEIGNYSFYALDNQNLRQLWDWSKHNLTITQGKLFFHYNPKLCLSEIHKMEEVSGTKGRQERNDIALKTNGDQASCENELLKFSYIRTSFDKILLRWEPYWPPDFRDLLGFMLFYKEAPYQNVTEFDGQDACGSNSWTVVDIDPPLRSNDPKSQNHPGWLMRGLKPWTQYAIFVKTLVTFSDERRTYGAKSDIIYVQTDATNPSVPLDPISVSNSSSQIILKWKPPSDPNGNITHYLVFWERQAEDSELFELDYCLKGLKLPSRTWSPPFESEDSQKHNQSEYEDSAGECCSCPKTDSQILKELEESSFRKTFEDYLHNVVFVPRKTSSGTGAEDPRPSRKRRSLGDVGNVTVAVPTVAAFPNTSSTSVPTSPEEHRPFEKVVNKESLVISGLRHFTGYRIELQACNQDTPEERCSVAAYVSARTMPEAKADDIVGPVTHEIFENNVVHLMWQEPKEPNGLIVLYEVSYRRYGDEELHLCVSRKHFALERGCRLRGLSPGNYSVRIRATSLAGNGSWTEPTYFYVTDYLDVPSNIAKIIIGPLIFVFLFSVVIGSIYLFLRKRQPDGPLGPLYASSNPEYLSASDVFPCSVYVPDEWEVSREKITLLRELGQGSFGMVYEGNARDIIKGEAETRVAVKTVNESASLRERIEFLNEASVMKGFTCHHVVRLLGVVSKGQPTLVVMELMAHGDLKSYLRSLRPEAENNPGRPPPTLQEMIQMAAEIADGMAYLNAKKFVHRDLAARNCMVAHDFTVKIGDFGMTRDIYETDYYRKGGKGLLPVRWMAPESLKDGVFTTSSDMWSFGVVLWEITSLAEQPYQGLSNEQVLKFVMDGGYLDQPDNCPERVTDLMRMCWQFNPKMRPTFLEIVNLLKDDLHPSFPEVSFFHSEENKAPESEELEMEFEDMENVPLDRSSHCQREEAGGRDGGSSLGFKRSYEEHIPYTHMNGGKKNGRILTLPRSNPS
Chain of p38b MAPK (Q15759 whole entry): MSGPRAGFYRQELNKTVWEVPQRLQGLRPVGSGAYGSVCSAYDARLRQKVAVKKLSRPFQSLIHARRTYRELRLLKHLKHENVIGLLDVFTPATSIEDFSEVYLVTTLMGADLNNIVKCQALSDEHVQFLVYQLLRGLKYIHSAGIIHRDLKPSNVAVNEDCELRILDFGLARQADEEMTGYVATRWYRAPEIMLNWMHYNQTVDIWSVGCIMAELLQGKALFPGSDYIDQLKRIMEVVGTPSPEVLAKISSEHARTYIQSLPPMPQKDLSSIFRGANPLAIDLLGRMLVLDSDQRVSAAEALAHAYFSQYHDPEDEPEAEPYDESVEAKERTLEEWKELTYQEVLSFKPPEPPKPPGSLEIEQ
Chain of JNK3 (P53779 whole entry, species assumed): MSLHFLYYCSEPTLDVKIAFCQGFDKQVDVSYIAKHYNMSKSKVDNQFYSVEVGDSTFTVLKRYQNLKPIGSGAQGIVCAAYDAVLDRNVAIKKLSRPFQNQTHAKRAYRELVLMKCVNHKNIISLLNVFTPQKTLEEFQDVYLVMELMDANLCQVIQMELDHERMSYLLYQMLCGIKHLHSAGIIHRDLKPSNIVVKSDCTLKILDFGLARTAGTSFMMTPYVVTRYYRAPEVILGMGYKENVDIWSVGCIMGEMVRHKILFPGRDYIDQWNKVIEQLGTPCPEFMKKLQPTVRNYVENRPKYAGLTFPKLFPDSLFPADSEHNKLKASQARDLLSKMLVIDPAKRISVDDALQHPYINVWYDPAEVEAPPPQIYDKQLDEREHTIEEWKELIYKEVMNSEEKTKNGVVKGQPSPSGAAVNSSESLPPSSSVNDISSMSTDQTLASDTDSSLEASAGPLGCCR

As for `NCCCC[C@H](NC(=O)[C@H](CC(=O)O)NC(=O)[C@H](CC(=O)O)NC(=O)[C@H](CC(=O)O)NC(=O)[C@H](CC(=O)O)NC(=O)[C@H](CC(=O)O)NC(=O)[C@@H](CC(=O)O)NC(=O)CCCCCCCn1cnc2c(Br)c(Br)c(Br)c(Br)c21)C(=O)O` [TBBI-OcA-(D-Asp)-(L-Asp)5-(L-Lys)-OH] (X1-[dD]DDDDDK-OH), the remaining activity at 1 µM with IR is 70%; with PKCa it was 94%; in the series with PRAK, 74%; with EPH-B2 it was 113%; in the series with JNK3, 85%; with p38b MAPK it was 122%. The remaining activity at 1 µM came out at 105% in the series with JNK2 and 17% with DYRK2.
